Laboratory results: patent US20120077731A1 (Ablynx, published 2012)

Legend:
[1] = target: T1, Human membrane IL-6R on cells (human, UniProt P08887 20-468); assay: cell-based or functional assay
T1 sequence (looked up): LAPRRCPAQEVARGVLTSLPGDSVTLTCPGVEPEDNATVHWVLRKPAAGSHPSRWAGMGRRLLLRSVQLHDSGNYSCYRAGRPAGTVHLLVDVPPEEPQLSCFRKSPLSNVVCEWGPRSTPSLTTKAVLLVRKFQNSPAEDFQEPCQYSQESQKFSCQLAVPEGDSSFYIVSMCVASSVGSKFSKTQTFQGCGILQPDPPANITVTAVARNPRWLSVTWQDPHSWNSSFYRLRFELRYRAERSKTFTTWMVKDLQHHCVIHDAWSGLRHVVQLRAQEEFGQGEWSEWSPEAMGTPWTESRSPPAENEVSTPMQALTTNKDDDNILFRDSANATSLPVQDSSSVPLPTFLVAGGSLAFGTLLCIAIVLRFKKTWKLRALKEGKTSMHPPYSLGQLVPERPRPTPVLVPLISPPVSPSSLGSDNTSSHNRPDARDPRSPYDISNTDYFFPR

[2] = target: T2, Human plasma sIL-6R (human, UniProt P08887 20-355, limits assumed); assay: plasma potency ELISA, human plasma
T2 construct: also called plasma-derived human IL-6R
T2 sequence (looked up): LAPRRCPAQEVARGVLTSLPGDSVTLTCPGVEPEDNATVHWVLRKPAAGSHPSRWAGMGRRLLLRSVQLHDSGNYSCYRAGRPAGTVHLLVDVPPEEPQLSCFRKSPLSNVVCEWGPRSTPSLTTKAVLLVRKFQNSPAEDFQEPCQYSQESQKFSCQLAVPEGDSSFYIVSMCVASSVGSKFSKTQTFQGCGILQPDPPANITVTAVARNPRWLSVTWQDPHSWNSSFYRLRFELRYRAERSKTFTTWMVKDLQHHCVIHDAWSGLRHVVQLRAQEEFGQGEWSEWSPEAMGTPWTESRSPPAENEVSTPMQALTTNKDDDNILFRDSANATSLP

[3] = target: T1, Human membrane IL-6R on cells; assay: flow cytometry, human PBL, lymphocytes donor 1
[4] = target: T1, Human membrane IL-6R on cells; assay: flow cytometry, human PBL, lymphocytes donor 2
[5] = target: T1, Human membrane IL-6R on cells; assay: flow cytometry, human PBL, granulocytes donor 1
[6] = target: T3, CLF-1/CLC (UniProt O75462 38-422; Q9UBD9 28-225, limits assumed); assay: competitive binding ELISA, similar setup (results not shown)
T3 sequence (looked up) 1: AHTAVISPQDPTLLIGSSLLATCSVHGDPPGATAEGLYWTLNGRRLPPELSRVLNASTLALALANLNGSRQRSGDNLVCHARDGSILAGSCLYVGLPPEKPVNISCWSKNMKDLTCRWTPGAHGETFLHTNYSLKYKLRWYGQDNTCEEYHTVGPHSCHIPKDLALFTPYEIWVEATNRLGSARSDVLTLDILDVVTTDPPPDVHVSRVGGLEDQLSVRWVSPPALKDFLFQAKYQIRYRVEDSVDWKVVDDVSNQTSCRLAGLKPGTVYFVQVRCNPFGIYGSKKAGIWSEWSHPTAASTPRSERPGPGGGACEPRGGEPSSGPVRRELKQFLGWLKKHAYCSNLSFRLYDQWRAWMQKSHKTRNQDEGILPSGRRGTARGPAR
T3 sequence (looked up) 2: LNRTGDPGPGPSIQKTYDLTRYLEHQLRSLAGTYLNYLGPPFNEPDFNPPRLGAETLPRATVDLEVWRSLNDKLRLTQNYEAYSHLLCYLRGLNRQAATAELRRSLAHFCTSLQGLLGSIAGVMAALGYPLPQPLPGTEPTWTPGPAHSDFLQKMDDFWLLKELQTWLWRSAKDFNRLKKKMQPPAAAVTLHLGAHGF

[7] = target: T4, IL12-p40 (UniProt P29460 23-328); assay: as above
T4 sequence (looked up): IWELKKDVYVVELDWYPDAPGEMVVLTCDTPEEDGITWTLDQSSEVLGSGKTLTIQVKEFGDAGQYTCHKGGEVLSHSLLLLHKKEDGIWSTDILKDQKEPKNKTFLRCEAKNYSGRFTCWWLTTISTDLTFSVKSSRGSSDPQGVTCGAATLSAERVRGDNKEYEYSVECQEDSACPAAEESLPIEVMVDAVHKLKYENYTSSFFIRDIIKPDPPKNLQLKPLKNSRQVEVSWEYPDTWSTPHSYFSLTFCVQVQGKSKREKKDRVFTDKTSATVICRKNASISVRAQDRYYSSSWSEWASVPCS

[8] = target: T5, IL-27B (UniProt Q14213 21-229, limits assumed); assay: as above
T5 sequence (looked up): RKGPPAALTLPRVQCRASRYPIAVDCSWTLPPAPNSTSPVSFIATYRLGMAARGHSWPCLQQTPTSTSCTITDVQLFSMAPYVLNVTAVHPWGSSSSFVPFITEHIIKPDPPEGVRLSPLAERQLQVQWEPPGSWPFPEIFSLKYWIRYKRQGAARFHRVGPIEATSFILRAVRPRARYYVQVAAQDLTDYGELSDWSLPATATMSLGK

[9] = target: T6, gp130/Fc (UniProt P40189 23-619); assay: as above
T6 construct: not shown: Fc part, not described
T6 sequence (looked up): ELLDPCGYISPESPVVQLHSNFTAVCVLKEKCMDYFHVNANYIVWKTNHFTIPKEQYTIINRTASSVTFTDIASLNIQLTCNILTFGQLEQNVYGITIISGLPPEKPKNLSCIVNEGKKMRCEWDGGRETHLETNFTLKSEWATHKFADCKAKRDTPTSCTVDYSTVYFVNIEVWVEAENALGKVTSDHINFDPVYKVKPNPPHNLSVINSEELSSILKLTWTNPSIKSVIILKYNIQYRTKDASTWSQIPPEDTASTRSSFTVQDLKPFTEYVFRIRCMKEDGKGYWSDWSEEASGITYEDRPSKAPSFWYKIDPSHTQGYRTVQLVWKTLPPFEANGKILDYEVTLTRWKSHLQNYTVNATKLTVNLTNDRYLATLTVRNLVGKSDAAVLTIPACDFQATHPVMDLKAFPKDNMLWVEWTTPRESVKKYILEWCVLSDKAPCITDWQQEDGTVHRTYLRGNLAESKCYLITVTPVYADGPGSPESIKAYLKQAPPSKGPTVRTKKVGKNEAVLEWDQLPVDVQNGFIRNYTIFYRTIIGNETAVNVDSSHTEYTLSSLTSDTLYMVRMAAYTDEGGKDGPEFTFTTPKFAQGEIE

- IC50, TF1 assay [1]: 0.4 nM
- Ratio (high/low) of IC50 [2]: 1.8
- EC50 [3]: 3.65 nM
- EC50 [4]: 2.92 nM
- EC50 [5]: 2.42 nM
- binding result [6]: no binding (tested: 100 nM)
- binding result [7]: no binding (tested: 100 nM)
- binding result [8]: no binding (tested: 100 nM)
- binding result [9]: no binding (tested: 100 nM)
B1: PMP20A11 (VHH)
VHH: EVQLVESGGGLVQPGGSLRLSCAASGSVFKINVMAWYRQAPGKGRELVAGIISGGSTSYADSVKGRFTISRDNAKNTLYLQMNSLRPEDTAVYYCAFITTESDYDLGRRYWGQGTLVTVSS
notes: also called IL6R20A11; IL6R300; not shown: c-myc and (His)6 tags
